In patent US12043852:

Molecular target: omega-dCas9 clone 4 (evolved SpCas9) D10A,H840A,E1219V; residues I122 and D182 also mutated, substitutions not stated (Streptococcus pyogenes) (UniProt Q99ZW2)
Assay: cell_activity
Details: E. coli activation

Sequence: GGAGCCCACCGAGUACCUGG / GGAGCCCACCGAGTACCTGGAGG / CCTCCAGGTACTCGGTGGGCTCC [Doench 2 sgRNA (spacer) ; Doench 2 target, AGG PAM]
- activity (luciferase activity) (PAM AGG): 238

Sequence: GGAGCCCACCGAGUACCUGG / GGAGCCCACCGAGTACCTGGGAG / CTCCCAGGTACTCGGTGGGCTCC [Doench 2 sgRNA (spacer) ; Doench 2 target, GAG PAM]
- activity (luciferase activity) (PAM GAG): 186

Sequence: GGAGCCCACCGAGUACCUGG / GGAGCCCACCGAGTACCTGGGTG / CACCCAGGTACTCGGTGGGCTCC [Doench 2 sgRNA (spacer) ; Doench 2 target, GTG PAM]
- activity (luciferase activity) (PAM GTG): 120
